Starred links: 1 amine or outer side, 2 acyl side, 3 side chain; linkers in the order of their positions; H or OH if unused. Non-standard residues stand in square brackets, D forms with d. Groups on a side chain read outwards from the residue. No end group written: not given here. *: point of attachment. C18 diacid = O=C(O)CCCCCCCCCCCCCCCCC(=O)*; γGlu = O=C(O)[C@H](CCC(=O)[*:2])N[*:1]; αMeF = C[C@](N)(Cc1ccccc1)C(=O)O; AEEA = NCCOCCOCC(=O)O; Aib = CC(C)(N)C(=O)O
B1: Peptide 145 (peptide)
peptide: H[Aib]QGTFTSDVSK[αMeF]LDSK([AEEA-AEEA-γGlu-C18 diacid])RAQDFVRWLASRGI-OH
modifications: N-terminus assumed
SMILES: CC[C@H](C)[C@H](NC(=O)CNC(=O)[C@H](CCCNC(=N)N)NC(=O)[C@H](CO)NC(=O)[C@H](C)NC(=O)[C@H](CC(C)C)NC(=O)[C@H](Cc1c[nH]c2ccccc12)NC(=O)[C@H](CCCNC(=N)N)NC(=O)[C@@H](NC(=O)[C@H](Cc1ccccc1)NC(=O)[C@H](CC(=O)O)NC(=O)[C@H](CCC(N)=O)NC(=O)[C@H](C)NC(=O)[C@H](CCCNC(=N)N)NC(=O)[C@H](CCCCNC(=O)COCCOCCNC(=O)COCCOCCNC(=O)CC[C@H](NC(=O)CCCCCCCCCCCCCCCCC(=O)O)C(=O)O)NC(=O)[C@H](CO)NC(=O)[C@H](CC(=O)O)NC(=O)[C@H](CC(C)C)NC(=O)[C@](C)(Cc1ccccc1)NC(=O)[C@H](CCCCN)NC(=O)[C@H](CO)NC(=O)[C@@H](NC(=O)[C@H](CC(=O)O)NC(=O)[C@H](CO)NC(=O)[C@@H](NC(=O)[C@H](Cc1ccccc1)NC(=O)[C@@H](NC(=O)CNC(=O)[C@H](CCC(N)=O)NC(=O)C(C)(C)NC(=O)[C@@H](N)Cc1c[nH]cn1)[C@@H](C)O)[C@@H](C)O)C(C)C)C(C)C)C(=O)O
B2: Peptide 146 (peptide)
peptide: H[Aib]QGTFTSDVSK[αMeF]LDSK([AEEA-AEEA-γGlu-C18 diacid])RAQDFVRWLASR-OH
modifications: N-terminus assumed
SMILES: CC(C)C[C@H](NC(=O)[C@H](Cc1c[nH]c2ccccc12)NC(=O)[C@H](CCCNC(=N)N)NC(=O)[C@@H](NC(=O)[C@H](Cc1ccccc1)NC(=O)[C@H](CC(=O)O)NC(=O)[C@H](CCC(N)=O)NC(=O)[C@H](C)NC(=O)[C@H](CCCNC(=N)N)NC(=O)[C@H](CCCCNC(=O)COCCOCCNC(=O)COCCOCCNC(=O)CC[C@H](NC(=O)CCCCCCCCCCCCCCCCC(=O)O)C(=O)O)NC(=O)[C@H](CO)NC(=O)[C@H](CC(=O)O)NC(=O)[C@H](CC(C)C)NC(=O)[C@](C)(Cc1ccccc1)NC(=O)[C@H](CCCCN)NC(=O)[C@H](CO)NC(=O)[C@@H](NC(=O)[C@H](CC(=O)O)NC(=O)[C@H](CO)NC(=O)[C@@H](NC(=O)[C@H](Cc1ccccc1)NC(=O)[C@@H](NC(=O)CNC(=O)[C@H](CCC(N)=O)NC(=O)C(C)(C)NC(=O)[C@@H](N)Cc1c[nH]cn1)[C@@H](C)O)[C@@H](C)O)C(C)C)C(C)C)C(=O)N[C@@H](C)C(=O)N[C@@H](CO)C(=O)N[C@@H](CCCNC(=N)N)C(=O)O
B3: Peptide 147 (peptide)
peptide: H[Aib]QGTFTSDVSK[αMeF]LDSK([AEEA-AEEA-γGlu-C18 diacid])RAQDFVRWLEA[Aib]G-OH
modifications: N-terminus assumed
SMILES: CC(C)C[C@H](NC(=O)[C@H](Cc1c[nH]c2ccccc12)NC(=O)[C@H](CCCNC(=N)N)NC(=O)[C@@H](NC(=O)[C@H](Cc1ccccc1)NC(=O)[C@H](CC(=O)O)NC(=O)[C@H](CCC(N)=O)NC(=O)[C@H](C)NC(=O)[C@H](CCCNC(=N)N)NC(=O)[C@H](CCCCNC(=O)COCCOCCNC(=O)COCCOCCNC(=O)CC[C@H](NC(=O)CCCCCCCCCCCCCCCCC(=O)O)C(=O)O)NC(=O)[C@H](CO)NC(=O)[C@H](CC(=O)O)NC(=O)[C@H](CC(C)C)NC(=O)[C@](C)(Cc1ccccc1)NC(=O)[C@H](CCCCN)NC(=O)[C@H](CO)NC(=O)[C@@H](NC(=O)[C@H](CC(=O)O)NC(=O)[C@H](CO)NC(=O)[C@@H](NC(=O)[C@H](Cc1ccccc1)NC(=O)[C@@H](NC(=O)CNC(=O)[C@H](CCC(N)=O)NC(=O)C(C)(C)NC(=O)[C@@H](N)Cc1c[nH]cn1)[C@@H](C)O)[C@@H](C)O)C(C)C)C(C)C)C(=O)N[C@@H](CCC(=O)O)C(=O)N[C@@H](C)C(=O)NC(C)(C)C(=O)NCC(=O)O

biological target: human GLP-1 receptor (human, UniProt P43220); assay: cell-based or functional assay

B1 was tested. Which “cAMP production, hGLP-1R EC50 (pM)” value did it give?
The value was 22.6 pM.

B2 was tested. Which “cAMP production, hGLP-1R EC50 (pM)” value did it give?
Its value is 24.6 pM.

With B3 as the binder, how does the “cAMP production, hGLP-1R EC50 (pM)” value read?
Its value is 15.3 pM.

biological target: human glucagon receptor (human, UniProt P47871); assay: cell-based or functional assay

With B1 as the binder, how does the “cAMP production, hGluc-R EC50 (pM)” value read?
The value was 4590 pM.

How did the “cAMP production, hGluc-R EC50 (pM)” value turn out when B2 was run?
Its value is 1630 pM.

With B3 as the binder, how does the “cAMP production, hGluc-R EC50 (pM)” value read?
Its value is 43.5 pM.
